This passage reports protein production results from a protein production outcome set (Wang et al. 2014).

This data set is described as follows: label from the status in PepcDB records.
Regarding “NAGFECGTEYLNFDEQPATMLDANLLSVEEGYPVTIIERLRTADGEPVVYCLDKIAKKELTCTEYQMSNGSILSAIKEQSNHNICYADTEIEAVNYEPRISEVLNASPHEGLILLKITHYNELDEPILYSLNYMKNSLVQ”, the protein production result is recorded as “failed”.

Turning to “NAKAESVSSGEFNRLRLALLALEARHSKRLGVLILDEIDSNLSGEESEGVARVLQELSRSYQILAISHQPHMPSYAHRHFLVKKEAKGSTIERLDRE”, the protein production result is on record as “failed”.

For the sequence “NCKKIGEDSKIIIRQITDNDLELLMAWRSNPLIYKFFYIQKEPLKWEEHYSWWMSRENRVDWIILLRENNTIRKVGSVNVSQLNTDNPEIGILIGEFFLWGKHIGRHSVSLVLKWLKNIGYKKAHARILENNIRSIKLFESLGFKKTKKGRENEWIYEVNL”, the protein production result was “not failed”.

Regarding “NDPDADRFAVAARKADGEYQMLTGDQVGSLFGHYLLSQTDAHRQLVGNTIVSSSLLSKIAAAHGARYYQTLTGFKWLTNVAMQEQTEQHQFLFAYEEALGYTIGSTVWDKDGLSALVAFAQLAAELNAQGKTVWDQLEALYRQHGLHVN”, the protein production entry is given as “failed”.

As to “NDVFSDEVKKIDDNTFIVEGRMPLDDFNKMFHVELPARGVDTVAGFVLTLTGTIPEEDDKVVVEYDTLRFTVEEMNDARLVSVRVEKDI”, the protein production result is “failed”.

On to “NELEKGNDGSGTVDPVNASTLVNVYSDKSGSEASLLVGDVLVKDSRTLTLNVPAACEKVYMKYNTVSGTEATKEFALSPVSRGVDQSTGFNFETNRLASVTLALPEDAVQPTNETDQGYLFYHNTGVVMFEDGWPIQLDSWYDEDFNDVVFEYDLKVTECHSQQMMETVGGKEELLLTLDVRAVGGIYPTVLGVVLDGLKSEYVDRITASLILKGGQGTMTDLAKEELSTKNIVKVENKNWNWSNDTRKEPRFAILTVDKAQAEGTVITLDGLTSLMDNNQDMFQVTQGKVREGLPMLRAEVRLIGKEGLTGAERDAQLAAFRELILDTNRQNFFIKVNGGKEIHMRGYAPTSAYKAEYEALVAGDTTLDANVYYSNTKGSTWGVKLPVGTRHAYERVPFREAYPDFTKWVDSKGVSNQKWYENFVDEKTIRYW”, for which the protein production entry is given as “not failed”.

For “NIKNILSERVSAAMVAAGLPEGTNPAISLSNRPQFGDYQANGVMGAAKKLKTNPRELATKVVAELDLDGIASKIELAGPGFINIHLDESWLAAQLNEVAQDDFIGVAQRGTT”, the protein production result is reported as “not failed”.

For “NITPLKEVQLALAEREAMMQALFDQASQFTALLTPTGKVVKVNQRALDFAGITVDEIVDQDFWETPWWQASEQLKADLKSAIHQAAQGILIRYDVENLGNNGQKVILDFSIRPIYDTDQRIIFLLCEGRDITDKFRIQEALAESEERFRQTFQTTAVSSALISLD”, the protein production result was “failed”.

Regarding “NIYDSANELSRGLRGLPEYKAVKAAKDAIAADAEASKIFTDYLAFQEEIQKLAQTGQMPDASFQAKMEGFGKQIQGNSLLSEFFTKQQQLAIYLSDIEKIVFEPVSEL”, the protein production result was “failed”.

With “NKEFTWTSALTFTLNNEKVKSLIGGTADHVKNEDYYLSIGYPVNSFYAPKIDGMWQLGEETDAAAFGCAPGDIKINVPGMIKEADGKFYKVGDDGQPLTDKNGDIIYYTKDNKYTYSDADSQVLGHNAPKWTMGFQNSFTYKNFDLTIYAYFRWGQMINYEMLGWYDSTGKGNFPTYFNYWTESNPSNDFPALNANRETKSYIGYGSLNYVDGSFFKIKNITLGYTFPERLLKNAGISKCRLYATITNPLTVAKSHLLKDYDPEMNGALKYPLSKQLVFGVNVSF”, the protein production entry is on record as “failed”.

As to “NKSIRMTPSQVAFEIRGTLLPGEVFAICGSCDALGNWNPQNAVALLPENDTGESMLWKATIVLSRGVSVQYRYFKGYFLEPKTIGGPCQVIVHKWETHLQPRSITPLESEIIIDDGQFGIHNGVETLDSGWLTCQTEIRLRLHYSEKPPVSITKKKLKKSRFRVKLTLEGLEEDDDDRVSPTVLHKMSNSLEISLISDNEFKCRHSQPECGYGLQPDRWTEYSIQTMEPDNLELIFDFFEEDLSEHVVQGDALPGHVGTACLLSSTIAESGKSAGILTLPIMSRNSRKTIGKVRVDYIIIKPLPGYSCDMKSSFSKYWKPRIPLDVGHRGAGNSTTTAQLAKVQENTIASLRNAASHGAAFVEFDVHLSKDFVPVVYHDLTCCLTMKKKFDADPVELFEIPVKELTFDQLQLLKLTHVTALKSKDRKESVVQEENSFSENQPFPSLKMVLESLPEDVGFNIEIKWICQQRDGMWDGNLSTYFDMNLFLDIILKTVLENSGKRRIVFSSFDADICTMVRQKQNKYPILFLTQGKSEIYPELMDLRSRTTPIAMSFAQFENLLGINVHTEDLLRNPSYIQEAKAKGLVIFCWGDDTNDPENRRKLKELGVNGLIYDRIYDWMPEQPNIFQVEQLERLKQELPELKSCLCPTVSRFVPSSLCGESDIHVDANGIDNVENA”, the protein production entry is on record as “not failed”.

“NLKVKGARDVFEYMKGRIPDETKEHLFVLFLSTKNQILRHETITIGTLTASLIHPREIFKAAIRESAHSIILVHNHPSGDVQPSNADKQVTSILKKAGDLLQIELLDHVIVGNNDWFSFRDHALL”: the protein production entry was “not failed”.

For the sequence “NMPRLRMLMSAFPKGGDLHHHLAGAIDAETMLQWAGDQNLCIDTIKLSVIPSPCDAAVNKKPAKNLERQDPILWNKLIDVFSMRNYHFDVAAGEHSGHDHFFSSFFHFAAALDNNFGRMIAYSRRDAAANNLLYIETMQNPKVVSTFARSVLQDAKGKNSPEDLWKVVKDRLPAAVAAAKAETTEAEAQSRQILQCDGRQPDPACSVTMRYMVFAVRAMPPEMVFAQLALGFALAHSDPRWVGVNIVAPEDGAVSMQDYDLHMQFFRFLRQLYPDVKITLHAGELALPLVPTAGLRDHIRKAVFVAGADRIGHGIDIGSEMNPVEILHHMAERPVPVEINLSSNDAILNIKGNQHPFALYRQYNVPVVISTDDAGVSRNDLTTEYMRAIEEQHVSYSDLKKLSRDSLEYAFLSGEGLWQKNTGESVKPVCSGIAFTAMPQGKCADFLVKNDKAALQWKLEAAFIRYEEQVREGA”, the protein production result is listed as “failed”.

On to “NQEPSGAVRITLSRFAYLLILKPAMAAFCQQYPGIQLEISVYDGTVNIIEERFDLGIRFGDILEGGVVARPLMKPFREGLYASSAYLAEYGVPAMPADLHHHRLIGYRFITNNRILPLILNDHGEQLTVEMPGQLISNDIDVM”, for which the protein production result is “failed”.

Regarding “NQLWTVEEQKKLEQLLIKYPPEEVESRRWQKIADELGNRTAKQVASQVQKYFIKLTKAGIPV”, the protein production entry was “not failed”.

Take “NSDLGGTLQFTSSNPDKAFGARLSQTLGSYDTSRTFMRVDTGEYNGLSAYVSGEKYDADAWKGHNNPQKSDAVNAKINYNFGDNRVSFFHSTSSHDEANLPSLSPSIIQRLGYNWSYYTPDWTRAVNAANGIYTGGVTSAGDATYNASSLRDDELDILNGNFSLTDDLVLDATVYHHHDSGRGNSYYPFVYTSGATTVPSNAIRSTVYGIDRTGFQSSLTYFLGQHEIQAGFWIQSNKNDIARYLFDTTNATPQNHIVKTNGLPLAATVLDQSYNDLTRQFYLRDTYTLLDDRLKLEFGAKNTVTTSTAKGKGGGYASGSLEARDRFLPQVGATYKLNDSDEVFTSYSENMAAFPSGGYSPFFTTQTAVDAQNGFKDLKPETSKTVELGLRRSTKLYSASAAVYNTRFDNRLVAITNCTGIVICQNGVANVGSVTSRGLELSLGLTPNENWRWSNSMSYNHSTYDDDYASGGSTVQVKGKTVVDTPKLMYSSSLDWNWEHWNAGLQGNYISKRYYTYTNDSSVSGYWLANANLGYDCGKLGALKDTTVSLNMVNLFDKRYISTLNTDASAAADPSGNLQILQVGTPRSAFVTLGVKL”: the protein production result is recorded as “failed”.

Regarding “NSHKVQMEKEIALKQKKFEQKHLQNYTDEIVGLYNEIRGFRHDYAGMLVSMQMAIDSGNLQEIDRIYNEVLVKANHKLRSDKYTYFDLNNIEDSALRSLVAQSIVYARNNGVEFTLEVKDTITKLPIELLDLVRIMSVLLNNAVEGSADSYKKQMEVAVIKMETETVIVIQNSCKMTMTPSGDLFALGFSTKGRNRGVGLNNVKELLDKYNNIILETEMEGSTFRQIIRFKREFE”, the protein production result was “failed”.

Regarding “NTMRSFILRARSAPTDSQRLLDEIGGKCHTEILAHCMMNSLFTAQSHREDVVIHLVLESTRDYSRTITVEANEISDVGGFHEAALIALLVKALDASVGMGKEQTRVVQPGLTVRTISFEALLGELAEHHSLYMMDKKGDSIRDIKIGPNPCFILTDHIPMPKKSGNSMKRLGVEKISLGPKMLFASQCVTLIHNEIDHQEA”, the protein production result is “failed”.

As for “NWKTRLRMLNHFPKPTFEDIPLLDLALSDEKVPVRRQAIVLLGMIESKEILPYLYKGLRDKSPAVRRTAGDCISDLGYPEALPEMVLLLDDPQKIVRWRAAMFIFDEGNAEQLPALKAHINDNAFEVKLQIEMAISRIENGDEALGSVWKQMAN”, the protein production entry is recorded as “failed”.

On to “NYLRDQVVMVGYGEVGRRITKTLMQQEIKVVIAEENREIVEDLRKKGIAAVSGEATEPSVLIQAHIMHARMLILSPMDILDIHRIVDIAKQLNPQIEVLCCAENKEEAEIIRQDEIGLVFYAKEEMAKNMSHHILGQIERAHHLSLGH”, for which the protein production result was “failed”.

For “PAKRAFSNADQFVETMLPLAKEAAARIGVDPVMLVAQAALETGWGKSIMRQQDGSSSHNLFGIKAAGSWKGAEARAITSEFRDGKMVKETADFRSYDSYADSFHDLVSLLQNNNRYKDVVNSADKPEQFVKELQKAGYATDPAYASKISQIAKQMKS”, the protein production entry is “not failed”.

Take “PDATSKKVVPLGVEIYEINGPFFFGVADRLKGVLDVIEETPKVFILRMRRVPVIDATGMHALWEFQESCEKRGTILLLSGVSDRLYGALNRFGFIEALGEERVFDHIDKALAYAKLLVETAEERGRES”: the protein production result is recorded as “not failed”.

With “PEDAINDESDDEDKVDKDDRLPQSDKDKRIVPENEYSDSEDEGEGGRRDNRSYKGQRKRPRLDKDTNSNKASSETSSEIKDEKEKGDGADGEESTASNTNS”, the protein production entry is reported as “failed”.

As to “PEDSARVWQAFSRTLQTGEHVEIDYRYLDPGADDWIHLHVAWRGVRGSSPDTYDVIGITQNVTELVAARDAALAAAETKSQFLANMSHEIRTPMNGVLGVLHLLKTEK”, the protein production result is “failed”.

Consider “PFYYRLHFCDTMELFIETLTGTCFELRVSPFETVISVKAKIRRLEGIPICRQHLIWNNMELENDYCLNDYNISEGCTLKLVLAMRGGPINTRRVPTDDPLR”, for which the protein production result is “failed”.

On to “PGEAVGVTIFEMALDELAEKAGLDPLELRLRNIPEEDPETGKPFTSHMLAEALRDGADRFGWSDRRAPGERRQGEWLIGMGMASAVRVNMLHKARVRVTLTGEGALVESSMTDIGTGTYTILTQIVAEMLGLAPDRVRTVLGDTDLPEGSGSGGSIGAASNGSAAFLACEEIRRQIAAGMGCPEEELTLKDGRATCGNRTRDLAEIVTQPLSAEGHFEPGKALKGVRSSTFGAHFAEVAVNEITGEVRVRRMLGAFAAGRILNEKTARSQCLGGMTFGIGMALMEEMVHDRRFGQVVSRDLANYHIPAHADVPALEVHFLEERDSYGGTLQAKGIGELGICGSGAAVLNAIHNACGVRVRDLPATPDKVLDGL”, for which the protein production result is reported as “failed”.

Regarding “PIGKSADNMYSYLALVQDDPTVQVVNMAQKAYVEHYIQGDPDLAKLPVLSAAAPFKVGGRKNDPASFVEVEKGQLTFRNAADLYLYPNTLVVMKVSGKEVKEWLECSAGQFNQIDPASSKPQSLINWDGFRTYNFDVIDGVNYQIDVTQPARYDGECQMIHPQAERIKHLTFNGKPVDPQATFLVATNNYRAYGGKFAGTGESHIAFASPDENRSVLAAWIGAQSKKEGAIHPAADNNWRLAPIHSN”, the protein production result was “failed”.

“PKLTRVDIAHDDFEGKHISVDWGNMQDGLGGFQLGNRAPNIEHKGNWRRPNGKGRTLCIGSRDSGKYLRLYEKGRAEGDPNDNWQRAEVEFKSIDRVLPFDMLLAPSEFFIAAYPCFRDLAQHLQPERIETISKTAQINFQTAIENLKHQYGKYINIFKEVFEPEELINLISCSDPLAYPKRLDHVLITARRM”: the protein production result is recorded as “failed”.
